Patent US20250059282A1

How the values were obtained:
PD-1 (on Jurkat T Cell) [1] = target: PD-1 (on Jurkat T Cell)
PD-1 (on Jurkat T Cell) [2] = target: PD-1 (on Jurkat T Cell); remark: listed apart in the source
Human PD-L2-HIS (human) [3] = target: Human PD-L2-HIS (human) (UniProt Q9BQ51); assay: Octet binning; competitor MIH18
Human PD-L2-HIS (human) [4] = target: Human PD-L2-HIS (human) (UniProt Q9BQ51); assay: Octet binning; competitor PDL2-21
Human PD-L2-HIS (human) [5] = target: Human PD-L2-HIS (human) (UniProt Q9BQ51); assay: Octet binning; competitor PDL2-23
Human PD-L2-HIS (human) [6] = target: Human PD-L2-HIS (human) (UniProt Q9BQ51); assay: Octet binning; competitor 24F.10C12
Human PD-L2-HIS (human) [7] = target: Human PD-L2-HIS (human) (UniProt Q9BQ51); assay: Octet binning; competitor BiPDL4-11
Human PD-L2-HIS (human) [8] = target: Human PD-L2-HIS (human) (UniProt Q9BQ51); assay: Octet binning; competitor BiPDL4-12
Human PD-L2-HIS (human) [9] = target: Human PD-L2-HIS (human) (UniProt Q9BQ51); assay: Octet binning; competitor BiPDL4-13
Human PD-L2-HIS (human) [10] = target: Human PD-L2-HIS (human) (UniProt Q9BQ51); assay: Octet binning; competitor BiPDL4-14
Human PD-L2-HIS (human) [11] = target: Human PD-L2-HIS (human) (UniProt Q9BQ51); assay: Octet binning; competitor PDL2-13 (column 7)
Human PD-L2-HIS (human) [12] = target: Human PD-L2-HIS (human) (UniProt Q9BQ51); assay: Octet binning; competitor PDL2-13 (column 11)

Sequence of Human PD-L2-HIS (human) (Q9BQ51 20-220): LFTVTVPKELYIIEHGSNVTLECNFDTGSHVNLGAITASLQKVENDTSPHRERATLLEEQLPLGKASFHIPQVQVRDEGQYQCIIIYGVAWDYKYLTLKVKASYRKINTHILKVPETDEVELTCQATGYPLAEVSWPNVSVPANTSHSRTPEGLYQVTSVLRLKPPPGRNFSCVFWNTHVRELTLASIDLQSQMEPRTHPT

EC50 (read off the curve); Fold induction of luciferase, Promega: CHO-PD-L1/PD-L2 dual cells with PD-1 Jurkat reporter cells (PD-1 (on Jurkat T Cell) [1])	EC50 (read off the curve); Luc Activity, Promega CHO-PDL1/PD-L2 dual cells with NFAT-Luc Jurkat T cells (PD-1 (on Jurkat T Cell) [2])	% of unblocked Ab2 binding signal (Human PD-L2-HIS (human) [3])	% of unblocked Ab2 binding signal (Human PD-L2-HIS (human) [4])	% of unblocked Ab2 binding signal (Human PD-L2-HIS (human) [5])	% of unblocked Ab2 binding signal (Human PD-L2-HIS (human) [6])	% of unblocked Ab2 binding signal (Human PD-L2-HIS (human) [7])	% of unblocked Ab2 binding signal (Human PD-L2-HIS (human) [8])	% of unblocked Ab2 binding signal (Human PD-L2-HIS (human) [9])	% of unblocked Ab2 binding signal (Human PD-L2-HIS (human) [10])	% of unblocked Ab2 binding signal (Human PD-L2-HIS (human) [11])	% of unblocked Ab2 binding signal (Human PD-L2-HIS (human) [12])	Substance
0.7 nM	2 nM	–	–	–	–	–	–	–	–	–	–	Keytruda (antibody)
–	–	5.73%	74.7%	70.3%	71.4%	47.9%	60.6%	57%	63.4%	73.7%	82.5%	MIH18 (antibody)
–	–	63.8%	5.24%	5.98%	4.99%	50.5%	57.5%	56.9%	62.8%	7.11%	6.3%	24F.10C12 (antibody)
